# From article PMC6297355
# Key:
# [1] = biological target: 5-carboxyfluorescein (5-FAM) labeled LVEALY tracer; test: fluorescence polarisation (Δmp read-out, fluorescent peptide tracer); settings: 30 µM BAG3P209L; 30 µM BAG3WT; parent: est. 2; read off a plot
# [2] = biological target: BAG3^P209L (recombinant) (human) (UniProt O95817); test: ITC; NBD (100 μM) in the syringe titrated into 10 μM BAG3 in the cell; 25 mM HEPES, 5 mM MgCl2, 100 mM KCl, pH 7.5; 25 °C; one-site binding model
# [3] = biological target: BAG3^WT (recombinant) (human) (UniProt O95817); test: as above
# Sequence of BAG3^WT (recombinant) (human) (O95817 whole entry): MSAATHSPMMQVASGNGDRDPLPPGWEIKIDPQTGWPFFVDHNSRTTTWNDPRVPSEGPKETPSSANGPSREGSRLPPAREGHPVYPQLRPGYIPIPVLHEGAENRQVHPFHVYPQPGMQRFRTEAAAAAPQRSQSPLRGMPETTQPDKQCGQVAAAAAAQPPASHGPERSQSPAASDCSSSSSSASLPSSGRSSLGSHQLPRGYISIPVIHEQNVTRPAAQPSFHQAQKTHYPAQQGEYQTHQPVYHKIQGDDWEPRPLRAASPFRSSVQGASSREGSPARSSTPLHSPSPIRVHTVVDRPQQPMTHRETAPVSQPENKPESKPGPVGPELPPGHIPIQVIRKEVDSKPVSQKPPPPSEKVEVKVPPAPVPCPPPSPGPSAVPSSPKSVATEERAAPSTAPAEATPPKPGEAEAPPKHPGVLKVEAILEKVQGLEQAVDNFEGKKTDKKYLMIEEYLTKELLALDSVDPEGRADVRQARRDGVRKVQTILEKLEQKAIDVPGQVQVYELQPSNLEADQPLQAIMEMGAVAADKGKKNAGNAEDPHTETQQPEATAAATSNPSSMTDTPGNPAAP
# Sequence of BAG3^P209L (recombinant) (human) (O95817 whole entry P209L): as the sequence (O95817 whole entry) above, with P209L counted along it
# Sequence of BAG3^WT (recombinant), O95817 P209L (O95817 whole entry P209L): as the sequence (O95817 whole entry) above, with P209L counted along it
response [1],Kd [2],Kd [3],Substance
54 Δmp,–,–,"BAG3^WT (recombinant), O95817 P209L"
–,300 nM,300 nM,HSPA8^NBD (nucleotide-binding domain of HSPA8) (domain or fragment)
